Reference: US20160051694A1

Legend:
[1] = molecular target: CD37 (Leukocyte Antigen CD37, Tetraspanin-26) on cells (human) (UniProt P11049); assay: FACS, 5 ug/mL biotinylated control antibody + streptavidin-PE, BDCM cells (AML); background control
[2] = molecular target: CD37 (Leukocyte Antigen CD37, Tetraspanin-26) on cells (human) (UniProt P11049); assay: FACS, 5 ug/mL biotinylated control antibody + streptavidin-PE, Mino cells (MCL); background control
[3] = molecular target: CD37 (Leukocyte Antigen CD37, Tetraspanin-26) on cells (human) (UniProt P11049); assay: FACS, 5 ug/mL biotinylated control antibody + streptavidin-PE, EoL-1 cells (AML); background control
[4] = molecular target: CD37 (Leukocyte Antigen CD37, Tetraspanin-26) on cells (human) (UniProt P11049); assay: FACS, 5 ug/mL biotinylated control antibody + streptavidin-PE, HL-60 cells (AML); background control
[5] = molecular target: CD37 (Leukocyte Antigen CD37, Tetraspanin-26) on cells (human) (UniProt P11049); assay: FACS, 5 ug/mL biotinylated control antibody + streptavidin-PE, JVM-3 cells (CLL); background control
[6] = molecular target: CD37 (Leukocyte Antigen CD37, Tetraspanin-26) on cells (human) (UniProt P11049); assay: FACS, 5 ug/mL biotinylated control antibody + streptavidin-PE, REC-1 cells (MCL); background control
[7] = molecular target: CD37 (Leukocyte Antigen CD37, Tetraspanin-26) on cells (human) (UniProt P11049); assay: FACS, 5 ug/mL biotinylated control antibody + streptavidin-PE, THP-1 cells (AML); background control
[8] = molecular target: CD37 (Leukocyte Antigen CD37, Tetraspanin-26) on cells (human) (UniProt P11049); assay: FACS, 5 ug/mL biotinylated control antibody + streptavidin-PE, MOLT-4 cells (ALL); background control
[9] = molecular target: CD37 (Leukocyte Antigen CD37, Tetraspanin-26) on cells (human) (UniProt P11049); assay: FACS, 5 ug/mL biotinylated control antibody + streptavidin-PE, RS4-11 cells (ALL); background control
[10] = molecular target: CD37 (Leukocyte Antigen CD37, Tetraspanin-26) on cells (human) (UniProt P11049); assay: FACS, 5 ug/mL biotinylated control antibody + streptavidin-PE, MOLM-13 cells (AML); background control
[11] = molecular target: CD37 (Leukocyte Antigen CD37, Tetraspanin-26) on cells (human) (UniProt P11049); assay: FACS, 5 ug/mL biotinylated control antibody + streptavidin-PE, MV-4-11 cells (AML); background control
[12] = molecular target: CD37 (Leukocyte Antigen CD37, Tetraspanin-26) on cells (human) (UniProt P11049); assay: FACS, 5 ug/mL biotinylated control antibody + streptavidin-PE, Kasumi-1 cells (AML); background control
[13] = molecular target: CD37 (Leukocyte Antigen CD37, Tetraspanin-26) on cells (human) (UniProt P11049); assay: FACS, 5 ug/mL biotinylated control antibody + streptavidin-PE, Mino XCL cells (MCL); background control
[14] = molecular target: CD37 (Leukocyte Antigen CD37, Tetraspanin-26) on cells (human) (UniProt P11049); assay: FACS, 5 ug/mL biotinylated control antibody + streptavidin-PE, Raji cells (Burkitt's); background control
[15] = molecular target: CD37 (Leukocyte Antigen CD37, Tetraspanin-26) on cells (human) (UniProt P11049); assay: FACS, 5 ug/mL biotinylated control antibody + streptavidin-PE, SU-DHL-4 cells (DLBCL); background control
[16] = molecular target: CD37 (Leukocyte Antigen CD37, Tetraspanin-26) on cells (human) (UniProt P11049); assay: FACS, 5 ug/mL biotinylated control antibody + streptavidin-PE, Daudi cells (Burkitt's); background control
[17] = molecular target: CD37 (Leukocyte Antigen CD37, Tetraspanin-26) on cells (human) (UniProt P11049); assay: FACS, 5 ug/mL biotinylated control antibody + streptavidin-PE, Ramos cells (Burkitt's); background control
[18] = molecular target: CD37 (Leukocyte Antigen CD37, Tetraspanin-26) on cells (human) (UniProt P11049); assay: FACS, 5 ug/mL biotinylated control antibody + streptavidin-PE, WSU-DLCL-2 cells (DLBCL); background control
[19] = molecular target: CD37 (Leukocyte Antigen CD37, Tetraspanin-26) on cells (human) (UniProt P11049); assay: FACS, 5 ug/mL biotinylated control antibody + streptavidin-PE, DOHH-2 cells (Follicular); background control
[20] = molecular target: CD37 (Leukocyte Antigen CD37, Tetraspanin-26) on cells (human) (UniProt P11049); assay: FACS, 5 ug/mL biotinylated control antibody + streptavidin-PE, Ramos RR XCL cells (Burkitt's); background control
[21] = molecular target: CD37 (Leukocyte Antigen CD37, Tetraspanin-26) on cells (human) (UniProt P11049); assay: FACS, 5 ug/mL biotinylated control antibody + streptavidin-PE, KG-1 cells (AML); filing calls it high isotype control background binding
[22] = molecular target: CD37 (Leukocyte Antigen CD37, Tetraspanin-26) on cells (human) (UniProt P11049); assay: FACS, 5 ug/mL biotinylated control antibody + streptavidin-PE, Hel 92.1 cells (AML); filing calls it high isotype control background binding
[23] = molecular target: CD37 (Leukocyte Antigen CD37, Tetraspanin-26) on cells (human) (UniProt P11049); assay: FACS, 5 ug/mL biotinylated control antibody + streptavidin-PE, Granta-519 cells (MCL); filing calls it high isotype control background binding

Sequence of CD37 (Leukocyte Antigen CD37, Tetraspanin-26) on cells (human) (P11049 whole entry): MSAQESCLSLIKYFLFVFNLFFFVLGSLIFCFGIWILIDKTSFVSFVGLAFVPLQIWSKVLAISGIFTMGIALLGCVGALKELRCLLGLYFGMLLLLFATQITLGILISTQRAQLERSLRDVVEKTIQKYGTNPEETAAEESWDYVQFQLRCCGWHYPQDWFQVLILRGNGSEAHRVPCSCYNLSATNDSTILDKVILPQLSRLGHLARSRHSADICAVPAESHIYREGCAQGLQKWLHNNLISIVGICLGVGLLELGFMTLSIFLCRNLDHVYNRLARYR

Geometric Mean (fluorescence) [1]: 290 | Geometric Mean (fluorescence) [2]: 1480 | Geometric Mean (fluorescence) [3]: 189 | Geometric Mean (fluorescence) [4]: 967 | Geometric Mean (fluorescence) [5]: 1930 | Geometric Mean (fluorescence) [6]: 1010 | Geometric Mean (fluorescence) [7]: 324 | Geometric Mean (fluorescence) [8]: 1310 | Geometric Mean (fluorescence) [9]: 155 | Geometric Mean (fluorescence) [10]: 240 | Geometric Mean (fluorescence) [11]: 247 | Geometric Mean (fluorescence) [12]: 188 | Geometric Mean (fluorescence) [13]: 200 | Geometric Mean (fluorescence) [14]: 1760 | Geometric Mean (fluorescence) [15]: 1050 | Geometric Mean (fluorescence) [16]: 2040 | Geometric Mean (fluorescence) [17]: 1150 | Geometric Mean (fluorescence) [18]: 1200 | Geometric Mean (fluorescence) [19]: 840 | Geometric Mean (fluorescence) [20]: 693 | Geometric Mean (fluorescence) [21]: 8190 | Geometric Mean (fluorescence) [22]: 4220 | Geometric Mean (fluorescence) [23]: 15400
Substance: Isotype matched control antibody (biotinylated)
